One experiment can be described thus: Liver Tg content. The experiment is classed as in vivo, mice. The following applies: SPX 29 µg/kg/day ten days. On the procedure:
Liver tissue (50 mg) was homogenized in a 5% solution of 500 µL Triton X-100 in PBS. The homogenate was incubated at 80–100 °C for 5 min and centrifuged at 10,000× g for 10 min. The Tg levels were measured in the supernatants using a commercial kit (Wiener Lab., Rosario, Argentina).

A further experiment deals with mitochondrial DNA. The experiment in a line: Mitochondrial DNA content quantification (qPCR). The format is in vivo, mice. On the procedure:
Normal adult male C57BL/6 mice (four months of age) were kept in a temperature-controlled environment (20–22 °C and a fixed 12 h light/12 h dark cycle; lights on at 07:00 h) and fed ad libitum with Purina commercial rat/mouse chow (Ganave, Buenos Aires, Argentina, L0723/1). Mice were injected with SPX or PBS (29 µg/kg/day, Tocris, Bristol, UK) for ten days (the SPX and CTR groups, respectively). On the third day of the protocol, each group was subdivided into two other groups: one exposed to cold (4 °C, CTR-C and SPX-C, n = 12 mice for each group) and another one housed at RT (CTR and SPX, n = 15 mice for each group) (Figure 1). Food intake and body weight were measured every day. On the experimental day (day 10), the mice were euthanized under non-fasting conditions (08:00 to 09:00 h), and their trunk blood was collected; plasma samples were then frozen (–80 °C) until the metabolite measurement. […]
Tissue from the EAT and IAT depots were homogenized with lysis buffer (40 mM EDTA, 50 mM NaCl, 100 mM Tris, 0.2% SDS) in PBS (2:1) and, for DNA fragmentation, samples were sonicated (38 kHz ± 10% for 5–10 s). […] Finally, the DNA was dissolved in TE buffer and quantified by Nanodrop at 260 nm. […] The relative changes in the DNA mitochondrial content were calculated by 2[2, −ΔΔCt] […]

In a further experiment the test system is pgc1α. Kind of experiment: pgc1α mRNA expression in AT depots (qRT-PCR). The format is in vivo, mice. On the procedure:
(§1) Normal adult male C57BL/6 mice (four months of age) were kept in a temperature-controlled environment (20–22 °C and a fixed 12 h light/12 h dark cycle; lights on at 07:00 h) and fed ad libitum with Purina commercial rat/mouse chow (Ganave, Buenos Aires, Argentina, L0723/1). Mice were injected with SPX or PBS (29 µg/kg/day, Tocris, Bristol, UK) for ten days (the SPX and CTR groups, respectively). On the third day of the protocol, each group was subdivided into two other groups: one exposed to cold (4 °C, CTR-C and SPX-C, n = 12 mice for each group) and another one housed at RT (CTR and SPX, n = 15 mice for each group) (Figure 1). Food intake and body weight were measured every day. On the experimental day (day 10), the mice were euthanized under non-fasting conditions (08:00 to 09:00 h), and their trunk blood was collected; plasma samples were then frozen (–80 °C) until the metabolite measurement. Inguinal AT (IAT, subcutaneous depot), epididymal AT (EAT, visceral depot), and brown AT (BAT, subcutaneous depot) were aseptically dissected and weighed. These depots were kept at –80 °C for further procedures. Animals were euthanized according to protocols for animal use, in agreement with the NIH guidelines for the care and use of experimental animals. All experiments were approved by our Institutional Animal Care Committee (Approval code: 6NE-2023).
(§2) Total RNA was isolated from cells by the Trizol extraction method (Invitrogen, Life Technology, Waltham, MA, USA) and reverse-transcribed using random primers (250 ng) and RevertAid Reverse Transcriptase (200 U/µL, Thermo Scientific, Waltham, MA, USA). […] The expression levels were analyzed for β-actin (βactin, […] gene), Uncoupling Protein 1 (ucp1), proliferator-activated receptor gamma coactivator-1 alpha (pgc1α), cytochrome-c oxidase subunit 8b (cox8b), galanin receptors 2 and 3 (galr2 and galr3, respectively), and Spexin (spx). […] The relative changes in the expression level of each gene (ΔΔCt) were calculated by the ΔCt method.

The next experiment has as its system cox8b. Kind of experiment: cox8b mRNA expression in AT depots (qRT-PCR). The following applies: cold, SPX-C vs. CTR-C, C × S p < 0.001. The experiment is classed as in vivo, mice. As to the method:
as §1, §2

A further experiment relates to spx. Kind of experiment: spx mRNA expression in AT depots (qRT-PCR). The experiment is classed as in vivo, mice. On the procedure: as §1, §2
A short description of experiment [1]: Adipose tissue depot mass percentage. Particulars: SPX 29 µg/kg/day ten days, cold (4 °C); SPX-C relative to CTR and CTR-C; C × S p < 0.05. The experiment is classed as in vivo, mice. On the procedure: as §1
A short description of experiment [2]: Daily caloric intake and body weight of SPX-treated mice at RT or cold. The format is in vivo. The following applies: for body weight change: C × S p < 0.05. On the procedure: as §1
Another experiment relates to galr2. Kind of experiment: galr2 mRNA expression in AT depots (qRT-PCR). The following applies: RT and cold. The experiment is classed as in vivo, mice. As to the method:
as §1, §2

The subject of another experiment is ucp1. The experiment in a line: UCP1 immunohistochemistry of EAT and IAT. The format is in vivo, mice. Particulars: SPX groups vs. CTR groups; representative of three experiments. On the procedure:
as §1, with “6NE-2023). […]” for “6NE-2023).”

B1: Spexin (peptide, UniProt Q9BT56 27-116, looked up)
Spexin: APQRLLERRNWTPQAMLYLKGAQGRRFISDQSRRKDLSDRPLPERRSPNPQLLTIPEAATILLASLQKSPEDEEKNFDQTRFLEDSLLNW
modifications: Spexin
notes: novel adipokine, a peptide of 14 amino acids of the galanin family; purchased from Tocris
For the molecule B1, the “liver Tg content, SPX-C vs. CTR-C” value in “Liver Tg content” (cold (4 °C), C × S p < 0.001, p < 0.001 vs. CTR-C) was “CTR-C mice had higher Tg levels than CTR (p < 0.01) and SPX-C (p < 0.001) mice”. Moreover, the “liver Tg content, SPX-C vs. SPX” value in the experiment “Liver Tg content” (cold vs. RT) is “lower Tg levels than SPX mice”. For the same molecule, the “mitDNA content in EAT” value in the experiment with mitochondrial DNA (RT and cold) was “no changes”. Also, the “mitDNA content in IAT” value in the experiment with mitochondrial DNA (cold, SPX-C intermediate between CTR and CTR-C, C × S p < 0.01) was “partial inhibition, although no significant differences were found”. For the same molecule, the “pgc1α mRNA expression in BAT” value in the experiment with pgc1α (RT and cold, Supplementary Figure S2b) is recorded as “no changes were observed”. The “pgc1α mRNA expression in EAT” value in the experiment on pgc1α (cold conditions, C p < 0.0001) was “increased in EAT for both the control and treated groups”. Also, in the experiment on pgc1α (cold, SPX-C vs. CTR-C, p < 0.001), the “pgc1α mRNA expression in IAT” value is recorded as “inhibited due to SPX in cold conditions”. Also, in the experiment on cox8b, the “cox8b mRNA expression in EAT” value was “inhibitory effect of SPX under cold conditions” and the “cox8b mRNA expression in IAT” value was “inhibitory effect of SPX under cold conditions”. Moreover, the “cox8b mRNA expression in BAT” value in the experiment with cox8b (Supplementary Figure S2c) was “inhibitory effect of SPX under cold conditions”. For the same molecule, the “spx mRNA expression in EAT” value in the experiment on spx (RT and cold) was “No changes”. Moreover, in the experiment on spx (RT and cold, Supplementary Figure S3), the “spx mRNA expression in BAT” value is “No changes”. The “spx mRNA expression in IAT” value in the experiment with spx (cold conditions, C × S p < 0.001) was “lower spx expression than CTR mice”. Further, the BAT mass percentage result in experiment [1] is recorded as “intermediate value”. Also, in experiment [2] (SPX and SPX-C mice, basal and cold-stimulated conditions, Pearson correlation, p < 0.01), the “correlation between initial body weight and body weight loss after SPX treatment” value is reported as “significant positive correlation”. Moreover, in experiment [2] (male C57BL/6 mice, SPX 29 µg/kg/day for ten days, RT or cold (4 °C) from day 3, vs. CTR, repeated measures ANOVA, n = 6–9), the caloric intake result is “no differences were observed due to the SPX treatment”. Moreover, in experiment [2] (male C57BL/6 mice, SPX 29 µg/kg/day for ten days, basal conditions (RT), SPX vs. CTR), the body weight change entry was “lost body weight vs. CTR ones”. The body weight change result in [2] (male C57BL/6 mice, SPX 29 µg/kg/day for ten days, cold (4 °C) from day 3, SPX-C vs. CTR-C) is “lost less weight than their CTR-C counterparts”. Further, in the experiment with galr2 (S p < 0.01), the “galr2 mRNA expression in EAT” value is reported as “decreased in both groups treated with SPX” and the “galr2 mRNA expression in IAT” value is “decreased in both groups treated with SPX”. In the experiment with galr2 (Supplementary Figure S3), the “galr2 mRNA expression in BAT” value is reported as “no differences were found”. In addition, the “UCP1 expression by immunohistochemistry, EAT and IAT” value in the experiment on ucp1 is reported as “lower than in the CTR groups”.

(Values after publication PMC10855774, “Role of Spexin in White Adipose Tissue Thermogenesis under Basal and Cold-Stimulated Conditions” (International Journal of Molecular Sciences, 2024).)
